Results on twelve molecules are retold here after paper PMC11996885, “Identification of potent biparatopic antibodies targeting FGFR2 fusion–driven cholangiocarcinoma” (The Journal of Clinical Investigation, 2025).

By koff is commonly meant the rate constant with which the complex falls apart. A word on the kon: it is the second-order rate constant of association.

The target in assay [1] is T1, full-length FGFR2-BICC1 on NIH3T3 cells (Homo sapiens, UniProt P21802-3, chimera).
T1 construct: FGFR2 part of the fusion, from its N-terminus with the extracellular domain to the breakpoint; the printed Gln361 fits the IIIb isoform (FGFR2b); BICC1 part of the fusion; also called FL; source: NIH3T3, transfected, on cells
Briefly: flow cytometry on cells; NIH3T3 cells expressing full-length FGFR2-BICC1 or its D1, D2, D3 or D2+D3 deletion variants, parental antibody A-F at 10 μg/mL in 1x PBS (Mg2+ free), 1.5 hours at room temperature; anti-human IgG secondary antibody. As to conditions: one partner purified.

The target of assay [2] is T2, FGFR2 on SNU16 cells (FGFR2 amplification) (Homo sapiens (SNU-16, endogenous), UniProt P21802-3).
T2 construct: FGFR2 endogenous on SNU16 cells; source: endogenous, SNU16 cells
Briefly: flow cytometry on cells; SNU-16 cells incubated with serial dilutions of parental antibody A-F in 1x PBS (Mg2+ free), 1.5 hours at room temperature; anti-human IgG secondary antibody; fit with a ligand-binding quadratic equation; apparent Kd. As to conditions: one partner purified. In general terms: Flow cytometry measures light scatter and fluorescence of single cells or particles in a stream.

The target in assay [3] is T3, hFGFR2 ECD 22-378 His-tag (Homo sapiens, UniProt P21802-3, biotin in the epitope binning only (Abcam Biotinylation Kit)).
T3 construct: human FGFR2 extracellular domain, residues 22-378; The antigen of the MSD-SET assay and the FGFR2 ECD of the SEC-MALS experiment are not described; also called hFGFR2 ECD AA22-AA378 His-tag; antigen; source: bought: SinoBiological
Briefly: BLI; Octet RED96e, 25°C, 1x kinetic buffer; antibodies captured on Anti-Human Fc capture biosensor at 0.5 μg/mL; hFGFR2 ECD 22-378 His-tag as analyte, 2-fold dilutions from 100 nM; 1:1 binding model; apparent affinity. As to conditions: both partners purified.

The target of assay [4] is T4, hFGFR2 ECD 22-378 His-tag (human, UniProt P21802-3, biotin (Abcam Biotinylation Kit) in the epitope binning only).
T4 construct: human FGFR2 extracellular domain, residues 22-378, SinoBiological 16485-H08H; also called hFGFR2 ECD AA22-AA378 His-tag; source: bought: SinoBiological
Briefly: BLI; Octet RED96e, 25°C, 1,000 rpm, 1x kinetic buffer; antibodies captured on anti-human Fc (AHC) biosensors at 0.5 ug/mL; hFGFR2 ECD 22-378 His-tag as analyte, 7 2-fold dilutions from 100 nM; association 300 s, dissociation 600 s; 1:1 model, global fit; apparent Kd for the biparatopic antibodies. As to conditions: both partners purified. Background: BLI is a label-free optical method that tracks binding on a fibre tip over time.

The target in assay [5] is T5, hFGFR2 ECD 22-378 His-tag (Homo sapiens, UniProt P21802-3).
T5 construct: FGFR2, human, extracellular domain residues 22-378 (SinoBiological 16485-H08H); Analyte of the BLI kinetics; also called hFGFR2 ECD AA22-AA378 His-tag; source: bought: SinoBiological
Briefly: BLI; Octet RED96e, 25 C, 1,000 rpm, 1x kinetic buffer; antibody captured on anti-human Fc (AHC) biosensor at 0.5 ug/mL; hFGFR2 ECD 22-378 His-tag as analyte, 7 two-fold dilutions from 100 nM; 1:1 model, global fit; apparent. As to conditions: both partners purified.

T1 sequence (P21802 whole entry, looked up, change not shown, the tested form may be a part, canonical isoform): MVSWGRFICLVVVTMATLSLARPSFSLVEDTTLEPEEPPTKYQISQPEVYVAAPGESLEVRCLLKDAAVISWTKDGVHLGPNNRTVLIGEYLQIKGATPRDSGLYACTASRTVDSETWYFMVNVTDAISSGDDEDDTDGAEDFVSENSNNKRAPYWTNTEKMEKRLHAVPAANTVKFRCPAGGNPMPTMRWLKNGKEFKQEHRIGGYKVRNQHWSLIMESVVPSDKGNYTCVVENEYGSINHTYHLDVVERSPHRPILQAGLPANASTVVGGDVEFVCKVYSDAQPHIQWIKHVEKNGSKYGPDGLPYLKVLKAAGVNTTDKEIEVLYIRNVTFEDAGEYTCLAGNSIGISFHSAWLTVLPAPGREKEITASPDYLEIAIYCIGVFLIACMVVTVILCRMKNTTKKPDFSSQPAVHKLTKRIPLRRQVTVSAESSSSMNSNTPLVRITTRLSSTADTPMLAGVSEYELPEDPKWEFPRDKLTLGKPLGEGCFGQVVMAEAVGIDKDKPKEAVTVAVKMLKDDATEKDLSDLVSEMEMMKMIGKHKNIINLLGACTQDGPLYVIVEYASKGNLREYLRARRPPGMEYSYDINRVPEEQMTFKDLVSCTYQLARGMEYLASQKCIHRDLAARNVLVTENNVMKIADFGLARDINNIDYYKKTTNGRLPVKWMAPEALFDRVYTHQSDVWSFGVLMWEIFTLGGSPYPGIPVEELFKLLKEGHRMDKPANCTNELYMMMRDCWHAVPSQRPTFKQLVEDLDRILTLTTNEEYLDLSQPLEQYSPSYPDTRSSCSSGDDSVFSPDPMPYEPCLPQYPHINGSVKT
T2 sequence (P21802 22-821): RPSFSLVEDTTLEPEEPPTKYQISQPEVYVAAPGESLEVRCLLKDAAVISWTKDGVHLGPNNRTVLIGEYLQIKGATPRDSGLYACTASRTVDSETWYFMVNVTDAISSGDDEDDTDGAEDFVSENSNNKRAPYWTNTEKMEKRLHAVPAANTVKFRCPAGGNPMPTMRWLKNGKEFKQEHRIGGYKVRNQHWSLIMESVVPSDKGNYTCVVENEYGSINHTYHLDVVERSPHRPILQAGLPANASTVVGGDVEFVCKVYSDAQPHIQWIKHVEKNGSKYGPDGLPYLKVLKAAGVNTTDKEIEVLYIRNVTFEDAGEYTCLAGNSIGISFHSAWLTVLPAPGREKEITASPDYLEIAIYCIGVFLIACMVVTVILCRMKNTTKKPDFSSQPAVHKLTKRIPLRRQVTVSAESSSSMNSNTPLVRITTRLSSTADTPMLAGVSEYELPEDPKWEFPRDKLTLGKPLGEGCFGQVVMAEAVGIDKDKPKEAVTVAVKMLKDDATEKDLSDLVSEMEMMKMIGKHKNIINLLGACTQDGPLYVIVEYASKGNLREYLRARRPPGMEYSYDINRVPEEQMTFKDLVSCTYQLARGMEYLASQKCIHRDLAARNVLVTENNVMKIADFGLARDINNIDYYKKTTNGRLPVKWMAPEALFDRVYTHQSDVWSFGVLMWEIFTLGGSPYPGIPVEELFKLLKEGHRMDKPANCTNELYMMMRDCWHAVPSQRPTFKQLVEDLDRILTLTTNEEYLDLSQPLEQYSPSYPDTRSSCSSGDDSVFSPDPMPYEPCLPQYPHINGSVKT
T3 sequence (P21802 other isoform, or with tags, fused parts or gaps): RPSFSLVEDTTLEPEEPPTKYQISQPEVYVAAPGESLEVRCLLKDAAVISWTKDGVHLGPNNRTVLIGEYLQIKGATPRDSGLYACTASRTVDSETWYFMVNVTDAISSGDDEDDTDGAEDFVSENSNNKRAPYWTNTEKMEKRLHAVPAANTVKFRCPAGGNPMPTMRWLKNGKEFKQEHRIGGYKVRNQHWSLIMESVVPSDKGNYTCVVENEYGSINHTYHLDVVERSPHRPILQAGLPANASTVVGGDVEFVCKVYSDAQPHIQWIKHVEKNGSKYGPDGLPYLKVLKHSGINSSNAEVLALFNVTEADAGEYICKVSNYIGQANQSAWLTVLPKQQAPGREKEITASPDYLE
T4 sequence (P21802 other isoform, or with tags, fused parts or gaps): as above

B1: FGFR2 parental antibody F (antibody, V domains shown)
VH: QVQLVQSGAEVKKPGESLKISCKGSGYSFTNYYIHWVRQMPGKGLEWMGAIYPDNSDTTYSPSFQGQVTISADKSISTAYLQWSSLKASDTAMYYCARGADIWGQGTLVTVSS
VL: DIQMTQSPSSLSASVGDRVTITCRASQDIDPYLSNWYQQKPGKAPKLLIYDASNLQSGVPSRFSGSGSGTDFTLTISSLQPEDFATYYCQQTTSHPYTFGQGTKVEIK
notes: heavy chain of antibody F, IgG1; light chain of antibody F; IgG1; One of the six parental antibodies is the parental antibody of bemarituzumab; also called Ab-F; copies: 2 + 2
B1: the binding result in assay [1], in assay [2] and in assay [3] was “binds” throughout.

B2: Anti-FGFR2 parental antibody B (antibody, V domains shown)
VH: QIQLVQSGPELKKPGETVKISCKASGYTFTDFGMNWMKQAPGKGFKWMGWINTSTGESTYADDFKGRFAFSLETSASTAYLQINNLKNEDMATYFCARNSYYGGSYGYWGQGTTLTVSS
VL: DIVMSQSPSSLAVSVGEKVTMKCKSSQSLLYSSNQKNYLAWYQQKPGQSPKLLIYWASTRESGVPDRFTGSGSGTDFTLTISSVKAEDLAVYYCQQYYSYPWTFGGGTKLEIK
notes: VH of antibody B; VL of antibody B; Full human IgG1; also produced with F405L or K409R in the Fc for Fab-arm exchange; The label 'Gal' in some supplementary panels probably means B; also called Ab-B; copies: 2 + 2
Regarding B2, in assay [4], the Kd is 5.5 nM, the koff came out at 0.000316 s⁻¹ and the kon turned out to be 53100 M⁻¹ s⁻¹.

B3: FGFR2 parental antibody B (antibody, V domains shown)
VH: QIQLVQSGPELKKPGETVKISCKASGYTFTDFGMNWMKQAPGKGFKWMGWINTSTGESTYADDFKGRFAFSLETSASTAYLQINNLKNEDMATYFCARNSYYGGSYGYWGQGTTLTVSS
VL: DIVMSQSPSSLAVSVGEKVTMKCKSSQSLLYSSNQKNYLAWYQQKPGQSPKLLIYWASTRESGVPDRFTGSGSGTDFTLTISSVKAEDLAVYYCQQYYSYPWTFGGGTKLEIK
notes: heavy chain of antibody B, IgG1; light chain of antibody B; IgG1; One of the six parental antibodies is the parental antibody of bemarituzumab; also called Ab-B; copies: 2 + 2
For B3, the binding result in assay [1] is recorded as “binds”.

B4: anti-FGFR2 parental antibody B (antibody, V domains shown)
VH: QIQLVQSGPELKKPGETVKISCKASGYTFTDFGMNWMKQAPGKGFKWMGWINTSTGESTYADDFKGRFAFSLETSASTAYLQINNLKNEDMATYFCARNSYYGGSYGYWGQGTTLTVSS
VL: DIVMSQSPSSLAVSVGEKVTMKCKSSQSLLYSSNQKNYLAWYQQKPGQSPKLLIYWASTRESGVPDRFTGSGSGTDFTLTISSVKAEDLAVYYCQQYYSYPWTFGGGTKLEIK
notes: heavy chain of antibody B; light chain of antibody B; IgG1; also called Ab-B; copies: 2 + 2
Turning to B4, the Kd in assay [5] was determined as 5.5 nM.

B5: FGFR2 parental antibody E (antibody, V domains shown)
VH: QVQLVQSGAEVKKPGSSVKVSCKASGYIFTTYNVHWVRQAPGQGLEWIGSIYPDNGDTSYNQNFKGRATITADKSTSTAYMELSSLRSEDTAVYYCARGDFAYWGQGTLVTVSS
VL: DIQMTQSPSSLSASVGDRVTITCKASQGVSNDYAWYQQKPGKAPKLLIYSASYRYTGVPSRFSGSGSGTDFTFTISSLQPEDIATYYCQQHSTTPYTFGQGTKLEIK
notes: heavy chain of antibody E, IgG1; light chain of antibody E; IgG1; One of the six parental antibodies is the parental antibody of bemarituzumab; Also used as the FGFR2 immunoblot reagent (Genscript); also called Ab-E; copies: 2 + 2
Regarding B5, the binding result in assay [1], in assay [2] and in assay [3] was “binds” in each case.

B6: Anti-FGFR2 parental antibody C (antibody, V domains shown)
VH: QVQLVESGGGLVKPGGSLRLSCAASGFTFSSYALSWVRQAPGKGLEWVGRIRSKIDGGTTDYAAPVKGRFTISRDDSKNTLYLQMNSLKTEDTAVYYCARDRSPSDSSAFAIWGQGTLVTVSS
VL: DIELTQPPSVSVSPGQTASITCSGDNLGSQYVDWYQQKPGQAPVLVIYDDNDRPSGIPERFSGSNSGNTATLTISGTQAEDEADYYCQSWDSLSVVFGGGTKLTVL
notes: VH of antibody C; VL of antibody C; Full human IgG1; The label 'N10' in some supplementary panels probably means C; also called Ab-C; copies: 2 + 2
B6: in assay [4], the Kd amounted to 7.05 nM, the koff is 0.00292 s⁻¹ and the kon was found to be 417000 M⁻¹ s⁻¹.

B7: anti-FGFR2 parental antibody C (antibody, V domains shown)
VH: QVQLVESGGGLVKPGGSLRLSCAASGFTFSSYALSWVRQAPGKGLEWVGRIRSKIDGGTTDYAAPVKGRFTISRDDSKNTLYLQMNSLKTEDTAVYYCARDRSPSDSSAFAIWGQGTLVTVSS
VL: DIELTQPPSVSVSPGQTASITCSGDNLGSQYVDWYQQKPGQAPVLVIYDDNDRPSGIPERFSGSNSGNTATLTISGTQAEDEADYYCQSWDSLSVVFGGGTKLTVL
notes: heavy chain of antibody C; light chain of antibody C; IgG1; also called Ab-C; copies: 2 + 2
On to B7, for which, in assay [5], the Kd came to 7.05 nM.

B8: FGFR2 parental antibody C (antibody, V domains shown)
VH: QVQLVESGGGLVKPGGSLRLSCAASGFTFSSYALSWVRQAPGKGLEWVGRIRSKIDGGTTDYAAPVKGRFTISRDDSKNTLYLQMNSLKTEDTAVYYCARDRSPSDSSAFAIWGQGTLVTVSS
VL: DIELTQPPSVSVSPGQTASITCSGDNLGSQYVDWYQQKPGQAPVLVIYDDNDRPSGIPERFSGSNSGNTATLTISGTQAEDEADYYCQSWDSLSVVFGGGTKLTVL
notes: heavy chain of antibody C, IgG1; light chain of antibody C; IgG1; One of the six parental antibodies is the parental antibody of bemarituzumab; also called Ab-C; copies: 2 + 2
Take B8: in assay [1], the binding result was “binds”.

B9: Anti-FGFR2 parental antibody D (antibody, V domains shown)
VH: EVQLVESGGGLVQPGGSLRLSCAASGFPFTSTGISWVRQAPGKGLEWVGRTHLGDGSTNYADSVKGRFTISADTSKNTAYLQMNSLRAEDTAVYYCARTYGIYDTYDMYTEYVMDYWGQGTLVTVSS
VL: DIQMTQSPSSLSASVGDRVTITCRASQDVDTSLAWYKQKPGKAPKLLIYSASFLYSGVPSRFSGSGSGTDFTLTISSLQPEDFATYYCQQSTGHPQTFGQGTKVEIK
notes: VH of antibody D; VL of antibody D; Full human IgG1; also produced with F405L or K409R in the Fc for Fab-arm exchange; The label 'GE' in some supplementary panels probably means D; also called Ab-D; copies: 2 + 2
As to B9, in assay [4], the Kd worked out at 2.79 nM, the koff came out at 0.000741 s⁻¹ and the kon turned out to be 282000 M⁻¹ s⁻¹.

B10: anti-FGFR2 parental antibody D (antibody, V domains shown)
VH: EVQLVESGGGLVQPGGSLRLSCAASGFPFTSTGISWVRQAPGKGLEWVGRTHLGDGSTNYADSVKGRFTISADTSKNTAYLQMNSLRAEDTAVYYCARTYGIYDTYDMYTEYVMDYWGQGTLVTVSS
VL: DIQMTQSPSSLSASVGDRVTITCRASQDVDTSLAWYKQKPGKAPKLLIYSASFLYSGVPSRFSGSGSGTDFTLTISSLQPEDFATYYCQQSTGHPQTFGQGTKVEIK
notes: heavy chain of antibody D; light chain of antibody D; IgG1; also called Ab-D; copies: 2 + 2
For B10, in assay [5], the Kd was 2.79 nM.

B11: FGFR2 parental antibody D (antibody, V domains shown)
VH: EVQLVESGGGLVQPGGSLRLSCAASGFPFTSTGISWVRQAPGKGLEWVGRTHLGDGSTNYADSVKGRFTISADTSKNTAYLQMNSLRAEDTAVYYCARTYGIYDTYDMYTEYVMDYWGQGTLVTVSS
VL: DIQMTQSPSSLSASVGDRVTITCRASQDVDTSLAWYKQKPGKAPKLLIYSASFLYSGVPSRFSGSGSGTDFTLTISSLQPEDFATYYCQQSTGHPQTFGQGTKVEIK
notes: heavy chain of antibody D, IgG1; light chain of antibody D; IgG1; One of the six parental antibodies is the parental antibody of bemarituzumab; also called Ab-D; copies: 2 + 2
With B11, the binding result in assay [1] is listed as “binds”.

B12: FGFR2 parental antibody A (antibody, V domains shown)
VH: EVQLLESGGGLVQPGGSLRLSCAASGFTFSSYAMSWVRQAPGKGLEWVSAISGSGTSTYYADSVKGRFTISRDNSKNTLYLQMNSLRAEDTAVYYCARVRYNWNHGDWFDPWGQGTLVTVSS
VL: QSVLTQPPSASGTPGQRVTISCSGSSSNIGNNYVSWYQQLPGTAPKLLIYENYNRPAGVPDRFSGSKSGTSASLAISGLRSEDEADYYCSSWDDSLNYWVFGGGTKLTVL
notes: heavy chain of antibody A, IgG1; light chain of antibody A; IgG1; One of the six parental antibodies is the parental antibody of bemarituzumab; also called Ab-A; copies: 2 + 2
Take B12: the binding result in assay [1], in assay [2] and in assay [3] was “binds” in each case.
